Test results taken from patent US8785600B2, “Anti-GCC antibody molecules and related compositions and methods” (Millennium Pharmaceuticals, Inc., priority 2009, dated 2014).

B1: Abx-198: Human anti-GCC SLAM mAb, IgG1,k; VH SEQ ID NO:42, VL SEQ ID NO:44 (antibody, V domains shown)
VH: EVQLLESGGGLVQPGGSLRLSCAASGFTFSSYAMSWVRQAPGKGLDWVSDISGSGGSTYYADSVKGRFTISRDNSKNTLYLQMHSLSAEDTAIYYCAKRRWQGYFDLWGRGTLVTVSS
VL: EIVLTQSPGTLSLSPGERATLSCRARQRVDSRYLAWYQQKPGQAPRLLIYGASSRATGIPDRFSGSGSGTDFTLTISRLEPEDFAVYYCQQYGSSPLTFGGGTKVEIK
B2: 3G1: Mouse anti-GCC hybridoma mAb, IgG1,k; VH SEQ ID NO:2, VL SEQ ID NO:4 (antibody, V domains shown)
VH: QVQLKESGPGLVAPSQSLSITCTVSGFSLSRNAISWVRQPPGKGLEWLGVIWTGGGTNYNSALKSRLSIRKENSKSQVFLKMNSLQTEDTARYFCARSGYDGFDYWGQGTLVTVSA
VL: QIVLTQSPAIMSASPGEKVTMTCSASSSVNYMHWYQQKSGTSPKRWIYDTSKLASGVPARFSGSGSGTSYSLTITSMEAEDAATYYCQQWSGNPYTFGGGTKLEIK
B3: 8F1: Mouse anti-GCC hybridoma mAb, IgG1,k; VH SEQ ID NO:10, VL SEQ ID NO:12 (antibody, V domains shown)
VH: QVQLQQPGAELVKPGASVQMSCKASGYIFTGYWMYWVKQRPGQGLEWIGRIHPSDSNTNYNQKFKGKATLTVDKSSSTAYMQLSSLTSEDSAVYYCTHALAYWGQGTLVTVS
VL: DVVLTQTPLTLSITIGQPASISCKSSQSLLYSNGKTYLSWLLQRPGQSPKRLIYLVSQLDSGVPDRFTGSGSGTDFTLKISRVEAEDLGVYYCVQGTHLFTFGSGTKLEIK

What follows are molecules tested on GCC 20-mer peptides (aa 1-440) (assay: Epitope mapping by peptide array). Conditions: 20-mer peptides with 15 aa overlap, GCC aa 1-440.
Format: binding, human
From the text: Multiple strategies were initiated to identify epitopes. Peptide array. 20-mer peptides, with 15 aa overlap were generated, covering the extracellular domain (ECD) into the transmembrane domain of GCC (aa 1-440). Peptides were synthesized and provided as arrays, immobilized on glass slides. Arrays were hybridized with each of the anti-GCC antibodies to determine if linear peptides were sufficient for binding. […] The sequence, […] (SEQ ID NO:225) is spanned by these peptides. A region of overlap among the peptides is […] (SEQ ID NO:314). […] The sequence, […] (SEQ ID NO:226), and the sequence […] (SEQ ID NO:315) overlaps the two peptides.

| Molecule | Peptides bound in peptide array |
| --- | --- |
| B1 | peptides 55 and 56 |
| B2 | peptides 55, 56 and 57 |
| B3 | peptides 55, 56 and 57 |
